Data on 1 molecule can be found in US20130142788A1 (published 2013).

For assay [1], the target named is T1, recombinant mature dimeric myostatin (human and mouse (mature sequences 100% …, UniProt O08689 268-376)).
T1 sequence: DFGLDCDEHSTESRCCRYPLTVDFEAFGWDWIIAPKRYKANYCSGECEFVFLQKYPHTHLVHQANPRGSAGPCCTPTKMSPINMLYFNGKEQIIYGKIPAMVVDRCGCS
Description: cell-based or functional assay.

Assay [2] concerns the target T1, recombinant mature dimeric myostatin. Description: Kinexa solution phase affinity. As for the experimental part: Kinexa (Sapidyne Instruments) solution phase affinity was used to determine the overall affinity for a range of anti-myostatin molecules. Myostatin beads were prepared either by adsorption (polymethylmethacrylate beads-PMMA) or amine coupling (NHS-activated sepharose beads). The range of anti-myostatin molecules studied necessitated the generation of beads coated with different concentrations of myostatin. For the solution phase portion of the assay, a fixed concentration of antibody was incubated with a broad range of myostatin concentrations and allowed to reach equilibrium by incubation at r.t. for at least 2 h before analysis proceeded. The myostatin beads were then used to determine the amount of free antibody present in the solution phase samples, by means of the free antibody binding to the myostatin bead matrix then detected using an appropriate secondary antibody (either anti-human or anti-mouse depending on the construct being tested) labelled with a fluorescent dye. The binding curves where fitted using the Kinexa Pro analysis software inherent to the machine. Multiple runs using varying starting concentrations of antibody were then compiled and analysed using the n-curve analysis software to give a more accurate determination of affinity.

The target of assay [3] is T2, GDF-11 (UniProt O95390 299-407).
T2 construct: also called Growth and Differentiation Factor-11
T2 sequence (looked up): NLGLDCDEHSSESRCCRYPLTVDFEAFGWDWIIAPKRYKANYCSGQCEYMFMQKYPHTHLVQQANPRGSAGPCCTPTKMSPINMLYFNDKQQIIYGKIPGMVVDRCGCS
Description: ELISA, growth factors coated at 0.5 µg/ml, H8L5 titrated. How it is done:
An ELISA was performed to determine whether H8L5 might bind any other growth factors and especially other members of the TGF family which were known to share some homology around the proposed epitope sequence. By coating an ELISA plate with the various growth factors at 0.5 μg/ml and titrating in H8L5 under standard ELISA conditions, It was concluded that the only other factor tested to which H8L5 could bind was GDF-11 wherein the concentration required to give 50% binding was 3-fold lower than myostatin (FIG. 22).

Assay [4] has as its target T3, Fc R 2a His polymorphism (UniProt P12318 34-217, limits assumed).
T3 construct: also called FcγRIIa His
T3 sequence (looked up): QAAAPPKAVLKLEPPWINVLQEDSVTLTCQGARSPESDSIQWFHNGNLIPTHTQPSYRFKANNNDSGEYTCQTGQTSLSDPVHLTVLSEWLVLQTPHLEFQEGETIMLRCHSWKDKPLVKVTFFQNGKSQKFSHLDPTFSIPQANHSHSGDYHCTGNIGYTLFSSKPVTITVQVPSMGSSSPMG
Description: ProteOn XPR36 SPR, antibody immobilised, receptor 8-2048 nM, equilibrium model. As for the experimental part: (§1) Binding analysis to Fc R5 and C1q was carried out using the ProteOn XPR36. The test antibodies (H8L5 and Fc-disabled H8L5) were immobilised on a GLC biosensor chip by primary amine coupling. The Fc Rs were used at 2048 nM, 512 nM, 128 nM, 32 nM and 8 nM, while C1q was used at 512 nM, 128 nM, 32 nM, 8 nM and 2 nM. A buffer injection (i.e. 0 nM) was used to double reference the binding sensorgrams. Due to the nature of the interaction (i.e. fast on/fast-off) regeneration was not required and the binding sensorgrams returned to baseline by use of a 20 min dissociation time and subsequent buffer injections. The data was fitted to the Equilibrium model inherent to the PrateOn's analysis software, using a global R-max for each receptor group and for C1q binding (i.e. Fc R 2aHis and Arg polymorphisms were analysed together and Fc R3aPhe and Val polymorphisms were analysed together, while C1q was analysed separately).

Assay [5] concerns the target T4, Fc R 2a Arg polymorphism (UniProt P12318 34-217, limits assumed).
T4 construct: also called FcγRIIa Arg
T4 sequence (looked up): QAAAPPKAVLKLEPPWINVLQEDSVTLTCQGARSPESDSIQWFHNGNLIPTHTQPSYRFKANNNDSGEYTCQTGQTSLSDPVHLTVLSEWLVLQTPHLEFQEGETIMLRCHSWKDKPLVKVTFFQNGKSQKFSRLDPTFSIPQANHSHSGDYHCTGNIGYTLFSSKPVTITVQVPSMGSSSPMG
Described as above. As for the experimental part:
as §1

Assay [6] has as its target T5, Fc R3a Phe polymorphism (UniProt P08637 17-208, limits assumed).
T5 construct: also called FcγRIIIa Phe
The assay is described as above. How it is done:
as §1

Assay [7] addresses T6, Fc R3a Val polymorphism (UniProt P08637 17-208, limits assumed).
T6 construct: also called FcγRIIIa Val
The description is as above. As for the experimental part: as §1

The target of assay [8] is T1, recombinant mature dimeric myostatin. Put plainly: ActRIIb neutralisation ELISA: inhibition of 2 nM biotinylated myostatin binding to coated ActRIIb. How it is done:
Recombinant soluble ActRIIb (R&D Systems 339-RBB) was coated in wells of an ELISA plate at 1 μg/ml in carbonate buffer overnight at 4° C. Plates were blocked with PBS containing 0.1% tween 20 and 0.1% BSA and washed following standard ELISA protocols. In parallel, 2 nM biotinylated myostatin (in-house reagent, described above) was pre-incubated with a dilution series of the antibodies of Tables 21 and 22 for 30 minutes at 37° C. The biotinylated myostatin:antibody reactions were then added (50 μl/well) to the ActRIIb coated plate for 1 hour at 37° C. Standard wash procedures were followed prior to addition of 50 μl per well of a 1:200 diluted streptavidin-HRP conjugate (R&D Systems. #890803) followed by a further 37° C. incubation for 1 hour. Plates were again washed and assayed at absorbance 490 nm following substrate (R&D Systems, #DY999) and acid stop solution treatment.

The target in assay [9] is T7, rhBMP6 (human, UniProt P22004).
T7 construct: recombinant (rh); form not further stated; member of the growth factor panel m51, named only on the sheet
T7 sequence (looked up): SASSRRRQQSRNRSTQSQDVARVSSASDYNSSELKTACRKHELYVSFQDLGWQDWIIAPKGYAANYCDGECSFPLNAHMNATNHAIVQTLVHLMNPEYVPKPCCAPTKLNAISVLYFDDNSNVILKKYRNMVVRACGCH
Put plainly: ELISA: plate coated with the growth factor at 0.5 µg/ml, H8L5 titrated; read-out % Bound.

Assay [10] addresses T8, rhBMP9 (human, UniProt Q9UK05).
T8 construct: recombinant (rh); form not further stated; member of the growth factor panel m51, named only on the sheet
T8 sequence (looked up): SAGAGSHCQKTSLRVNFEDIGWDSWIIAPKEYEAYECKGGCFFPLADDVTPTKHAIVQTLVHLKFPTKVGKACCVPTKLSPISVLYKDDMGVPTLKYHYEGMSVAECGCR
The description is as above.

T6 sequence (P08637 17-208 F176V limits assumed): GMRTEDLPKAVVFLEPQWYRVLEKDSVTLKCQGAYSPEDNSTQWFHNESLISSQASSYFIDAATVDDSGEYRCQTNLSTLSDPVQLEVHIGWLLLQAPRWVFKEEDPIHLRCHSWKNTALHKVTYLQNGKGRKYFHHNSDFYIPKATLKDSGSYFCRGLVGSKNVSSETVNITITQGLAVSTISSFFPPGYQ
T5 sequence (P08637 17-208 limits assumed): as the sequence (P08637 17-208 F176V limits assumed) above, with V160F counted along it

B1: H8L5 (antibody, IgG1)
heavy: not shown
light: DIQMTQSPSSLSASVGDRVTITCKASQDINSYLSWFQQKPGKAPKTLIYRANRLVDGVPSKFSGSGSGTDYTLTISSLQPEDFATYYCLQSDEFPLTFGQGTKLEIKRTVAAPSVFIFPPSDEQLKSGTASVVCLLNNFYPREAKVQWKVDNALQSGNSQESVTEQDSKDSTYSLSSTLTLSKADYEKHKVYACEVTHQGLSSPVTKSFNRGEC
notes: Humanised IgG1/kappa; also called 10B3H8L5; copies: 2 + 2
Turning to B1, the “IC50, myostatin responsive reporter gene neutralisation assay (A204)” value in assay [1] came to 5 nM. Besides, the Kd in assay [2] came to 0.05 nM. Besides, the “fold lower concentration required to give 50% binding than for myostatin” value in [3] was determined as 3 fold. The binding result in assay [4] is listed as “binds”; in [5], “binds”; in assay [6], “binds”; in assay [7], “binds”; in assay [9] it was “no binding (tested: 10^-7 (axis prints no unit))”; in assay [10], “no binding (tested: 10^-7 (axis prints no unit))”. Besides, in assay [8], the IC50 amounted to 0.101 nM.
